In patent US12180473B2, “Chimeric RNA-driven genomic rearrangement in mammalian cells” (priority 2018, dated 2024):
“Also recorded” adds a separate entry of the source.

Assays:
[1] = tested on: TMPRSS2-ETV1 fusion; assay type: cell-based, human
Description: (§1) DHT was added at the final concentration of 0.9 μM six hours post transfection. Following overnight incubation, cells were then treated with 4 μg/ml α-amanitin for various time periods (0, 2, 6, 12 and 24 hours). Cells were then revived in fresh medium containing 0.9 μM DHT without α-amanitin and RT-PCR was performed for either TMPRSS2-ERG or TMPRSS2-ETV1 fusion.

[2] = tested on: TMPRSS2-ERG fusion; assay type: cell-based, human
Description: as §1

[3] = tested on: TMPRSS2-ERG fusion; assay: RT-PCR detection of induced endogenous TMPRSS2-ERG fusion transcript in LNCaP cells expressing input RNA; details: for induction of endogenous TMPRSS2-ERG fusion transcript (RT-PCR): LNCaP cells transfected with input RNA plasmid, DHT for 3 days
Description: (§2) LNCaP cells were cultured in this special medium for 24 hrs prior to plasmid transfection.
(§3) Transfection was performed using Turbofect transfection reagent (Thermo Scientific, #R0531) according to manufacturer's protocol. Briefly, 1 μg of a particular plasmid was first diluted in 100 μl of the serum-free DMEM followed by immediate mixing by pipetting. 4 μl of the transfection reagent was then added to the diluted DNA followed by mixing and incubation for 20 min. The DNA/transfection reagent mixture was then added drop wise to a well containing LNCaP cells in 1 ml medium.
(§4) For treating cultured cells, concentrated DHT stock was diluted as 10× working solutions (for example, for 0.9 μM final concentration, 10× is prepared as 9.0 μM) with the appropriate complete culture medium and used immediately. […] Six hrs post transfection, 111 μl of fresh 10× DHT working solutions was added to each well of 12-wells plate containing 1 ml medium and transfected cells.
(§5) Briefly, cells were suspended in 200 μl of PBS buffer and were then lysed with 400 μl of lysis buffer. The sample was then passed through the filter assembly resulting in the binding of the nucleic acids to the filter. The filter containing nucleic acids was then incubated with DNase I dissolved in DNase incubation buffer to degrade genomic and plasmid DNAs. The column was then rinsed with wash buffer and total RNA then eluted in a new tube for further analysis.
(§6) After the addition of dNTPs, the mixture was denatured at 65° C. for 5 minutes. This was followed by the addition of a master-mix containing 1× superscript buffer, 10 mM DTT, 5 mM Magnesium chloride, RNaseOUT and Superscript III reverse transcriptase. Reactions were carried out at 50° C. for 50 minutes and then terminated by incubation at 85° C. for 5 minutes. cDNA was then treated with RNase-H for 20 minutes at 37° C. to degrade RNA in DNA/RNA hybrid. 1 μl of cDNA was used as template for each subsequent PCR reaction.
(§7) The Denaturation, Annealing and Extension steps were performed 32 cycles for induced fusion RNA and 27 cycles for input RNA.

[4] = tested on: TMPRSS2-ETV1 fusion; assay: RT-PCR detection of induced TMPRSS2-ETV1 fusion transcript in LNCaP cells; assay type: cell-based, human; details: LNCaP, two-round nested PCR
Description: • 1st Round: Top down PCR with TMPRSS2 ex-1 F1 and ETV1 ex-6 R1 • Denaturation 94° C., 30 sec • Annealing * , 45 sec • Extension 72° C., 60 sec
The Denaturation, Annealing and Extension steps were performed 2 cycles. • 2 cycles at each temperature: 62° C., 61° C., 60° C. . . .
Long Range PCR for Detecting Genomic DNA Fusion Junction

[5] = tested on: BCR-KCNQ2 fusion; assay: Nested RT-PCR of induced BCR-KCNQ2 fusion transcript in 293T cells; assay type: cell-based, human; details: for induction of BCR-KCNQ2 fusion: 293T, 3 days
From the text: FIGS. 42A-42E. BCR-KCNQ2 fusion induced in 293T cells by chimeric RNAs utilizing/excluding the SINE element for three-way junction formation. FIG. 42A. Examples of chimeric RNA design using Short Interspersed Nuclear Element (SINE) commonly present in the human genome. The designed chimeric RNA forge a three-way junction that could be formed between two SINEs in genomic DNA (in the stem) and chimeric RNA (perpendicular and below the stem). Genomic DNA stems formed by DNA repeats such as SINE/SINE repeats may constitute stems over 300 nts in length. Short lines in gray regions represent base pairings. SINEs are in crimson. FIG. 42B. […] This chimeric RNA has GC content of 52%. FIG. 42B discloses the BCR targeting sequence as SEQ ID NO: 245, the KCNQ2 targeting sequence as SEQ ID NO: 246, and the chimeric sequence as SEQ ID NO: 247. FIG. 42C. Examples of chimeric RNA design targeting DNA sequences of BCR and KCNQ2 genes in the genome which form genomic stems using regions outside of known DNA repeats such as Short Interspersed Nuclear Element (SINE). SINEs are commonly present in the human genome are shown in solid boxes. The DNA stem could range from 10 bp to >100 bp with some mismatches. FIG. 42D. […] This chimeric RNA target intron regions and has GC content of 60.4%. FIG. 42D discloses the BCR targeting sequence as SEQ ID NO: 248, the KCNQ2 targeting sequence as SEQ ID NO: 249, and the chimeric sequence as SEQ ID NO: 250. FIG. 42E. BCR-KCNQ2 fusion can be induced by chimeric RNAs that form 3-way junction with genomic stems using SINE repeats (Set1A) or outside of SINE repeats (Set1B). 293T cells were transfected with chimeric RNA expression plasmid for 3 days and then harvested for nested RT-PCR.

[6] = tested on: TMPRSS2-ERG fusion
Description: as §2, §3, §4, §5, §6, §7

[7] = LNCaP, 4 μg/ml α-amanitin, 0.9 μM DHT

CC[C@H](C)[C@@H]1NC(=O)CNC(=O)[C@@H]2Cc3c([nH]c4cc(O)ccc34)[S+]([O-])C[C@@H](NC(=O)CNC1=O)C(=O)N[C@@H](CC(N)=O)C(=O)N1C[C@H](O)C[C@H]1C(=O)N[C@@H]([C@@H](C)[C@@H](O)CO)C(=O)N2 (stereo in doubt) [α-amanitin, reference compound]
effect of α-amanitin treatment on TMPRSS2-ETV1 induction by antisense input RNA ([1]; lane 11 vs. 15): reduced the induction by antisense input RNAs
effect of α-amanitin treatment on TMPRSS2-ERG induction by antisense input RNA ([2]; lane 1 vs. 5): reduced the induction by antisense input RNAs

B1: Antisense-B3: input RNA, SEQ ID NO: 17 (nucleic acid)
antisense: TGTGCTCGCTTCGGCAGCACATATACTAACATTGGAACGATCCTGCAGTGGGGAGCATTTCCAGATGGAGAAACTGCAAGGAAAAGCATAGAAGTGGGGCCACCCCTCGTGAGCTGGGGAGGGCTCACCTGCCGCGCTCCAGGCGGCGCTCCCCGCCCCTCGCCCTCCGCCTCCG
induction of endogenous TMPRSS2-ERG fusion transcript (RT-PCR) [3]: complete loss of induction

B2: Sense-2: input RNA, SEQ ID NO: 2 (nucleic acid)
sense: TGTGCTCGCTTCGGCAGCACATATACTAACATTGGAACGATCCTGCAGGAGTAGGCGCGAGCTAAGCAGGAGGCGGAGGCGGAGGCGGAGGGCGAGGGGCGGGGAGCGCCGCCTGGAGCGCGGCAGGAAGCCTTATCAGTTGTGAGTGAGGACCAGTCGTTGTTTGAGTGTGCCTACGGAACGCCACACCTGGCTAAGACAGAGATGACCGCGTCCTCCTCCAGCGACTATGGACAGACTTCCAAGATGAGCCCACGCGTCCCTCAGCAGGATTGGCTGTCTCAACCCCCAGCCAGGGTCACCATCAAAATGGAATGTAACCCTAGCCAGGTGAATGGCTCAAG
induction of endogenous TMPRSS2-ERG fusion transcript (RT-PCR) [3]: failed to induce fusion transcripts

B3: Sense-2 Long: input RNA, SEQ ID NO: 3 (nucleic acid)
sense: TGTGCTCGCTTCGGCAGCACATATACTAACATTGGAACGATCCTGCAGGAGTAGGCGCGAGCTAAGCAGGAGGCGGAGGCGGAGGCGGAGGGCGAGGGGCGGGGAGCGCCGCCTGGAGCGCGGCAGGAAGCCTTATCAGTTGTGAGTGAGGACCAGTCGTTGTTTGAGTGTGCCTACGGAACGCCACACCTGGCTAAGACAGAGATGACCGCGTCCTCCTCCAGCGACTATGGACAGACTTCCAAGATGAGCCCACGCGTCCCTCAGCAGGATTGGCTGTCTCAACCCCCAGCCAGGGTCACCATCAAAATGGAATGTAACCCTAGCCAGGTGAATGGCTCAAGGAACTCTCCTGATGAATGCAGTGTGGCCAAAGGCGGGAAGATGGTGGGCAGCCCAGACACCGTTGGGATGAACTACGGCAGCTACATGGAGGAGAAGCACATGCCACCCCCAAACATGACCACGAACGAGCGCAGAGTTATCGTGCCAGCAGATCCTACGCTATGGAGTACAGACCATGTGCGGCAGTGGCTGGAGTGGGCGGTGAAAGAATATGGCCTTCCAGACGTCAACATCTTGTTATTCCAGAACATCGATGGGAAGGAACTGTGCAAGATGACCAAGGACGACTTCCAGAGGCTCACCCCCAGCTACAACGCCGACATCCTTCTCTCACATCTCCACTACCTCAGAGAGACTCCTCTTCCACATTTGACTTCAGATGATGTTGATAAAGCCTTA
induction of endogenous TMPRSS2-ERG fusion transcript (RT-PCR) [3]: failed to induce fusion transcripts

B4: Antisense-C2: input RNA, SEQ ID NO: 19 (nucleic acid)
antisense: TGTGCTCGCTTCGGCAGCACATATACTAACATTGGAACGATCCTGCAGTGAGCTCATGCTATTCCTATGACATAGATGAGCACTGGGTAGACCCCGTCCTGGTAACACTATTCATGCACTAACCAGCACTCCCAGTCCTCCTCCCCAAAGAGAAAAGGCGCACCGGTGCTCCCAG
induction of endogenous TMPRSS2-ERG fusion transcript (RT-PCR) [3]: complete loss of induction

B5: Sense-TMPRSS2-ETV1-A1: input RNA, SEQ ID NO: 42 (nucleic acid)
sense: TGTGCTCGCTTCGGCAGCACATATACTAACATTGGAACGATCCTGCAGCCAGTTGGTGGAAGAGAGTCCCCCGGGGTCCCCAAAGCTGGCTCCTAGTCTACTGAATCTAACTAAGACTTTAACTTGGAACGATTTACATAATGCGGCA
induction of TMPRSS2-ETV1 fusion transcript (RT-PCR) [4]: failed to induce fusion transcript
α-amanitin treatment time after which sense input RNA began to induce TMPRSS2-ETV1 fusion [1, 7]: 24 h

B6: SEQ ID NO: 247: chimeric RNA utilizing the SINE element to induce BCR-KCNQ2 fusion, GC content 52% (S1A 200-1 or S1A 200-2) (nucleic acid)
chain: AGCAGGGGGGGCGGTGTCCACACATCCTCACTACGCTGATTTGCCATTTGACTTACACAGTGCAACTCATGTGTTACCAGCCTTCACTGTTCTGACAGCT
modifications: listed as DNA, further chemistry not given here
induction of BCR-KCNQ2 fusion [5]: induce BCR-KCNQ2 fusion

B7: S1B 10-8: chimeric RNA, BCR-KCNQ2, GC content 60.4% (nucleic acid)
chain: CCAGGTGGAGCTGCCCATGCCTTCCCCGCAGGGCTGAGCCCACTCAGCCGTGAACCAAAGTCCACTAGTCCCATCAAAAGTGCTAACAGGAAGGGGGGATC
modifications: listed as DNA, further chemistry not given here
induction of BCR-KCNQ2 fusion [5]: induce BCR-KCNQ2 fusion in 293T cells
Cell line(s) identified ([5]; fusion gene partners BCR-KCNQ2, 293T): 293T

B8: Sense-5: input RNA, SEQ ID NO: 29 (nucleic acid)
sense: TGTGCTCGCTTCGGCAGCACATATACTAACATTGGAACGATCCTGCAGGAGTAGGCGCGAGCTTCCATCTCTCACTCCTGTCTGGCGGAGGGCGAGGGGCGGGGAGCGCCGCCTGGAGCGCGGCAGGTGAGCGGCGGATTGGCTGTCTCAACCCCCAGCCAGGGTCACCATCAAAATGGAATGTAACCCTAGCCAGGTGAATGGCTCAAG
induction of endogenous TMPRSS2-ERG fusion transcript (RT-PCR) [3]: fails to induce TMPRSS2-ERG gene fusion
α-amanitin treatment time after which sense input RNA began to induce TMPRSS2-ERG [2, 7]: 12 h

B9: Antisense-2: input RNA, SEQ ID NO: 5 (nucleic acid)
antisense: TGTGCTCGCTTCGGCAGCACATATACTAACATTGGAACGATCCTGCAGCTTGAGCCATTCACCTGGCTAGGGTTACATTCCATATTGATGGTGACCCTGGCTGGGGGTTGAGACAGCCAATCCTGCTGAGGGACGCGTGGGCTCATCTTGGAAGTCTGTCCATAGTCGCTGGAGGAGGACGCGGTCATCTCTGTCTTAGCCAGGTGTGGCGTTCCGTAGGCACACTCAAACAACGACTGGTCCTCACTCACAACTGATAAGGCTTCCTGCCGCGCTCCAGGCGGCGCTCCCCGCCCCTCGCCCTCCGCCTCCGCCTCCGCCTCCTGCTTAGCTCGCGCCTACTC
induction of endogenous TMPRSS2-ERG fusion transcript (RT-PCR) [3]: induced a clear band of 721 bp; also recorded: capable of inducing the fusion transcript
Cell line(s) identified ([3]; fusion gene partners TMPRSS2-ERG, LNCaP): LNCaP
induction with U6 promoter compared to CMV promoter [6]: more pronounced
